According to publication PMC13570301, “Domain-dependent uncoupling of the co-chaperone and E3 ubiquitin ligase CHIP underlies heterogeneity in spinocerebellar ataxia 48” (The Journal of Biological Chemistry, 2026):
Residue numbers refer to the chain shown, from its start. In names and notes the source's numbering stands.

B1: CHIP R225∗, recombinant, C-terminal His tag (enzyme, human, UniProt Q9UNE7-1 1-224, looked up)
chain: MKGKEEKEGGARLGAGGGSPEKSPSAQELKEQGNRLFVGRKYPEAAACYGRAITRNPLVAVYYTNRALCYLKMQQHEQALADCRRALELDGQSVKAHFFLGQCQLEMESYDEAIANLQRAYSLAKEQRLNFGDDIPSALRIAKKKRWNSIEERRIHQESELHSYLSRLIAAERERELEECQRNHEGDEDDSHVRAQQACIEAKHDKYMADMDELFSQVDEKRKK
notes: CHIP (STUB1), human, SCA48-associated nonsense variant R225∗ (stop in place of R225, U-box domain lost); source: PD-10 desalting for mass photometry, size exclusion for ubiquitination assays
B2: CHIP P228S, recombinant, C-terminal His tag (enzyme, human, UniProt Q9UNE7-1 1-303, looked up)
chain: MKGKEEKEGGARLGAGGGSPEKSPSAQELKEQGNRLFVGRKYPEAAACYGRAITRNPLVAVYYTNRALCYLKMQQHEQALADCRRALELDGQSVKAHFFLGQCQLEMESYDEAIANLQRAYSLAKEQRLNFGDDIPSALRIAKKKRWNSIEERRIHQESELHSYLSRLIAAERERELEECQRNHEGDEDDSHVRAQQACIEAKHDKYMADMDELFSQVDEKRKKRDISDYLCGKISFELMREPCITPSGITYDRKDIEEHLQRVGHFDPVTRSPLTQEQLIPNLAMKEVIDAFISENGWVEDY
notes: CHIP (STUB1), human, SCA48-associated U-box variant P228S; source: PD-10 desalting for mass photometry, size exclusion for ubiquitination assays; not shown: His tag, C-terminal, kept
B3: CHIP F37L, recombinant, C-terminal His tag (enzyme, human, UniProt Q9UNE7-1 1-303, looked up)
chain: B2 chain with F37L, S228P
notes: CHIP (STUB1), human, SCA48-associated TPR-domain variant F37L; source: PD-10 desalting for mass photometry, size exclusion for ubiquitination assays
B4: CHIP P57L, recombinant, C-terminal His tag (enzyme, human, UniProt Q9UNE7-1 1-303, looked up)
chain: B2 chain with P57L, S228P
notes: CHIP (STUB1), human, SCA48-associated TPR-domain variant P57L; source: PD-10 desalting for mass photometry, size exclusion for ubiquitination assays
B5: CHIP G33S, recombinant, C-terminal His tag (enzyme, human, UniProt Q9UNE7-1 1-303, looked up)
chain: B2 chain with G33S, S228P
notes: CHIP (STUB1), human, SCA48-associated TPR-domain variant G33S; source: PD-10 desalting for mass photometry, size exclusion for ubiquitination assays; not shown: His tag, C-terminal, kept
B6: CHIP A67T, recombinant, C-terminal His tag (enzyme, human, UniProt Q9UNE7-1 1-303, looked up)
chain: B2 chain with A67T, S228P
notes: CHIP (STUB1), human, SCA48-associated TPR-domain variant A67T; source: PD-10 desalting for mass photometry, size exclusion for ubiquitination assays
B7: CHIP I53T, recombinant, C-terminal His tag (enzyme, human, UniProt Q9UNE7-1 1-303, looked up)
chain: B2 chain with I53T, S228P
notes: CHIP (STUB1), human, SCA48-associated TPR-domain variant I53T; source: PD-10 desalting for mass photometry, size exclusion for ubiquitination assays
B8: CHIP R241W, recombinant, C-terminal His tag (enzyme, human, UniProt Q9UNE7-1 1-303, looked up)
chain: B2 chain with S228P, R241W
notes: CHIP (STUB1), human, SCA48-associated U-box variant R241W; source: PD-10 desalting for mass photometry, size exclusion for ubiquitination assays

Biological target: the molecule itself
Assay: mass photometry; Refeyn OneMP; CHIP at 50 nM final (a subset also at 20 nM and 100 nM) in 20 mM HEPES pH 8.0, 200 mM NaCl; self-association, oligomeric states by mass

Row | Protein | stoichiometry N
1 | B1 | 2

Biological target: the molecule itself
Assay: as above
Remark: another data set of the same source

Row | Protein | binding result
2 | B2 | binds
3 | B3 | binds
4 | B4 | binds
5 | B5 | binds
6 | B6 | binds
7 | B7 | binds
8 | B8 | binds
